# In patent US20250388673A1 (HIFIBIO, published 2025):
# B1: HFB6-4-hG1 (human-mouse chimeric monoclonal antibody) (antibody, human IgG1, kappa, V domains shown)
# VH: EVQLQQSGAELVNPGASVKLSCTTSGFNIKDTYIHWVKQRPEQGLEWIGRNDPANGNTKYDPKFQGKATITADTSSSTAYLQLSSLTSEDTAVYYCASYEGYYERFGYWGQGTLVTVSA
# VL: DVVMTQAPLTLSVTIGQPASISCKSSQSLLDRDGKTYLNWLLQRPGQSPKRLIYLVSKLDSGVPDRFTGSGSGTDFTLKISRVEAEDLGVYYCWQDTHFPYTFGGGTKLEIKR
# notes: also called HFB6-4 parental antibody
# B2: HFB6-4hz21-hG1 (antibody, human IgG1, V domains shown)
# VH: EVQLVESGGGLVQPGRSLRLSCTTSGFNIKDTYIHWFRQAPGKGLEWVGRNDPANGNTKYTASFKGRATISADGSKSIAYLQMNSLKTEDTAVYYCASYEGYYERFGYWGQGTLVTVSS
# VL: DIVMTQSPDSLAVSLGERATINCKSSQSLLDRDGKTYLNWLQQKPGQSPKRLIYLVSKLDSGVPDRFSGSGSGTDFTLTISSLQAEDLAVYYCWQDTHFPYTFGQGTKLEIK
# notes: Humanized variant of HFB6-4, human IgG1 (hG1)
# B3: HFB6-4hz22-hG1 (antibody, human IgG1, V domains shown)
# VH: EVQLVESGGGLVQPGGSLKLSCATSGFNIKDTYIHWVRQASGKGLEWIGRNDPANGNTKYAASFKGRATISADDSKNTAYLQLNSLKTEDTAVYYCASYEGYYERFGYWGQGTLVTVSS
# VL: DIVMTQSPDSLAVSLGERATINCKSSQSLLDRDGKTYLNWLQQKPGQSPKRLIYLVSKLDSGVPDRFSGSGSGTDFTLTISSLQAEDLAVYYCWQDTHFPYTFGQGTKLEIK
# notes: as for B2
# B4: HFB6-4hz23-hG1 (antibody, human IgG1, V domains shown)
# VH: QVQLQESGPGLVKPSGTLSLTCAVSGFNIKDTYIHWVRQPPGKGLEWIGRNDPANGNTKYNPSFKSRATISADKSKNQASLKLSSVTAADTAVYYCASYEGYYERFGYWGQGTLVTVSS
# VL: DIVMTQSPDSLAVSLGERATINCKSSQSLLDRDGKTYLNWLQQKPGQSPKRLIYLVSKLDSGVPDRFSGSGSGTDFTLTISSLQAEDLAVYYCWQDTHFPYTFGQGTKLEIK
# notes: as for B2
# B5: HFB6-4hz24-hG1 (antibody, human IgG1, V domains shown)
# VH: EVQLVQSGAEVKKPGESLKISCKTSGFNIKDTYIHWVRQMPGKGLEWIGRNDPANGNTKYSPSFQGQVTISADKSISTAYLQLSSLKASDTAMYYCASYEGYYERFGYWGQGTLVTVSS
# VL: DIVMTQSPDSLAVSLGERATINCKSSQSLLDRDGKTYLNWLQQKPGQSPKRLIYLVSKLDSGVPDRFSGSGSGTDFTLTISSLQAEDLAVYYCWQDTHFPYTFGQGTKLEIK
# notes: as for B2
# B6: HFB6-5hz1-hG1 (antibody, human IgG1, V domains shown)
# VH: QVQLVQSGAEVKKPGSSVKVSCKASGVNIKDTYMYWVRQAPGQGLEWIGRIDPANGYARYAQKFQGRATITADESTSTAYMELSSLRSEDTAVYYCAVYDGYYESFDVWGQGTLVTVSS
# VL: DIQMTQSPSSLSASVGDRVTITCRSSQSLLDSDGKSYLNWLQQKPGKAPKRLIYLVSKLDSGVPSRFSGSGSGTDFTLTISSLQPEDFATYYCWQGTLFPRTFGQGTKLEIK
# notes: Humanized variant of HFB6-5, human IgG1 (hG1)
# B7: HFB6-5hz2-hG1 (antibody, human IgG1, V domains shown)
# VH: QVQLVQSGAEVKKPGASVKVSCKASGVNIKDTYMYWVRQAPGQGLEWIGRIDPANGYTRYAQKFQGRATITADTSTSTVYMELSSLRSEDTAVYYCAVYDGYYESFDVWGQGTLVTVSS
# VL: DIQMTQSPSSLSASVGDRVTITCRSSQSLLDSDGKSYLNWLQQKPGKAPKRLIYLVSKLDSGVPSRFSGSGSGTDFTLTISSLQPEDFATYYCWQGTLFPRTFGQGTKLEIK
# notes: as for B6
# B8: HFB6-5hz3-hG1 (antibody, human IgG1, V domains shown)
# VH: EVQLVESGGGLVQPGRSLRLSCTASGVNIKDTYMYWVRQAPGKGLEWVGRIDPANGYTRYTASFKGRATISADGSKSIAYLQMNSLKTEDTAVYYCAVYDGYYESFDVWGQGTLVTVSS
# VL: DIQMTQSPSSLSASVGDRVTITCRSSQSLLDSDGKSYLNWLQQKPGKAPKRLIYLVSKLDSGVPSRFSGSGSGTDFTLTISSLQPEDFATYYCWQGTLFPRTFGQGTKLEIK
# notes: as for B6
# B9: HFB6-5hz4-hG1 (antibody, human IgG1, V domains shown)
# VH: EVQLVESGGGLVQPGGSLKLSCAASGVNIKDTYMYWVRQASGKGLEWIGRIDPANGYTRYAASFKGRATISADDSKNTAYLQLNSLKTEDTAVYYCAVYDGYYESFDVWGQGTLVTVSS
# VL: DIQMTQSPSSLSASVGDRVTITCRSSQSLLDSDGKSYLNWLQQKPGKAPKRLIYLVSKLDSGVPSRFSGSGSGTDFTLTISSLQPEDFATYYCWQGTLFPRTFGQGTKLEIK
# notes: as for B6
# B10: HFB6-5hz5-hG1 (antibody, human IgG1, V domains shown)
# VH: QVQLQESGPGLVKPSGTLSLTCAASGVNIKDTYMYWVRQPPGKGLEWIGRIDPANGYTRYNPSFKSRATISADKSKNQASLKLSSVTAADTAVYYCAVYDGYYESFDVWGQGTLVTVSS
# VL: DIQMTQSPSSLSASVGDRVTITCRSSQSLLDSDGKSYLNWLQQKPGKAPKRLIYLVSKLDSGVPSRFSGSGSGTDFTLTISSLQPEDFATYYCWQGTLFPRTFGQGTKLEIK
# notes: as for B6
# B11: HFB6-5hz6-hG1 (antibody, human IgG1, V domains shown)
# VH: EVQLVQSGAEVKKPGESLKISCKGSGVNIKDTYMYWVRQMPGKGLEWIGRIDPANGYTRYSPSFQGQVTISADKSISTAYLQLSSLKASDTAMYYCAVYDGYYESFDVWGQGTLVTVSS
# VL: DIQMTQSPSSLSASVGDRVTITCRSSQSLLDSDGKSYLNWLQQKPGKAPKRLIYLVSKLDSGVPSRFSGSGSGTDFTLTISSLQPEDFATYYCWQGTLFPRTFGQGTKLEIK
# notes: as for B6
# B12: HFB6-5hz7-hG1 (antibody, human IgG1, V domains shown)
# VH: QVQLVQSGAEVKKPGSSVKVSCKASGVNIKDTYMYWVRQAPGQGLEWIGRIDPANGYARYAQKFQGRATITADESTSTAYMELSSLRSEDTAVYYCAVYDGYYESFDVWGQGTLVTVSS
# VL: DVVMTQSPLSLPVTLGQPASISCRSSQSLLDSDGKTYLNWLQQRPGQSPRRLIYLVSKRDSGVPDRFSGSGSGTDFTLKISRVEAEDLGVYYCWQGTLFPRTFGQGTKLEIK
# notes: as for B6
# B13: HFB6-5hz8-hG1 (antibody, human IgG1, V domains shown)
# VH: QVQLVQSGAEVKKPGASVKVSCKASGVNIKDTYMYWVRQAPGQGLEWIGRIDPANGYTRYAQKFQGRATITADTSTSTVYMELSSLRSEDTAVYYCAVYDGYYESFDVWGQGTLVTVSS
# VL: DVVMTQSPLSLPVTLGQPASISCRSSQSLLDSDGKTYLNWLQQRPGQSPRRLIYLVSKRDSGVPDRFSGSGSGTDFTLKISRVEAEDLGVYYCWQGTLFPRTFGQGTKLEIK
# notes: as for B6
# B14: HFB6-5hz9-hG1 (antibody, human IgG1, V domains shown)
# VH: EVQLVESGGGLVQPGRSLRLSCTASGVNIKDTYMYWVRQAPGKGLEWVGRIDPANGYTRYTASFKGRATISADGSKSIAYLQMNSLKTEDTAVYYCAVYDGYYESFDVWGQGTLVTVSS
# VL: DVVMTQSPLSLPVTLGQPASISCRSSQSLLDSDGKTYLNWLQQRPGQSPRRLIYLVSKRDSGVPDRFSGSGSGTDFTLKISRVEAEDLGVYYCWQGTLFPRTFGQGTKLEIK
# notes: as for B6
# B15: HFB6-5hz10-hG1 (antibody, human IgG1, V domains shown)
# VH: EVQLVESGGGLVQPGGSLKLSCAASGVNIKDTYMYWVRQASGKGLEWIGRIDPANGYTRYAASFKGRATISADDSKNTAYLQLNSLKTEDTAVYYCAVYDGYYESFDVWGQGTLVTVSS
# VL: DVVMTQSPLSLPVTLGQPASISCRSSQSLLDSDGKTYLNWLQQRPGQSPRRLIYLVSKRDSGVPDRFSGSGSGTDFTLKISRVEAEDLGVYYCWQGTLFPRTFGQGTKLEIK
# notes: as for B6
# B16: HFB6-5hz11-hG1 (antibody, human IgG1, V domains shown)
# VH: QVQLQESGPGLVKPSGTLSLTCAASGVNIKDTYMYWVRQPPGKGLEWIGRIDPANGYTRYNPSFKSRATISADKSKNQASLKLSSVTAADTAVYYCAVYDGYYESFDVWGQGTLVTVSS
# VL: DVVMTQSPLSLPVTLGQPASISCRSSQSLLDSDGKTYLNWLQQRPGQSPRRLIYLVSKRDSGVPDRFSGSGSGTDFTLKISRVEAEDLGVYYCWQGTLFPRTFGQGTKLEIK
# notes: as for B6
# Biological target: T1, human BTLA (human, UniProt Q7Z6A9 31-289)
# T1 construct: also called hBTLA; HEK293.hBTLA
# T1 sequence: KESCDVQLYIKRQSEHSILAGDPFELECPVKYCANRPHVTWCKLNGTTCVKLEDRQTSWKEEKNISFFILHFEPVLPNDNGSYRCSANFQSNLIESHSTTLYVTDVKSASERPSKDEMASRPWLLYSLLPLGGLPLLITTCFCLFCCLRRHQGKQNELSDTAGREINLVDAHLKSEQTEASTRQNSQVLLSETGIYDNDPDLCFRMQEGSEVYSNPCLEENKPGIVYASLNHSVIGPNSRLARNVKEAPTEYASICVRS
# Assay: flow cytometry, HEK293 cells overexpressing human BTLA
# Experimental: HEK293 cells overexpressing human BTLA and Expi293 cells overexpressing cynomolus BTLA were incubated with different concentrations of humanized anti-BTLA antibodies. Anti-BTLA antibody binding to target cells were quantified with an AF647-conjugated anti-human IgG Fc secondary antibody by flow cytometry.
row,Binder,binding result
1,B1,binds
2,B2,binds
3,B3,binds
4,B4,binds
5,B5,binds
6,B6,binds
7,B7,binds
8,B8,binds
9,B9,binds
10,B10,binds
11,B11,binds
12,B12,binds
13,B13,binds
14,B14,binds
15,B15,binds
16,B16,binds
